These results are taken from patent US20210163614A1 (GMAX BIOPHARM, published 2021).

Changes are numbered by the printed parent chain.

Assay [1] concerns the target T1, human APJ (apelin receptor) (human, UniProt P35414 1-380).
T1 construct: Expressed on the membrane of stably transfected CHO-DHFR- cells; also called hAPJ; APJ receptor
T1 sequence: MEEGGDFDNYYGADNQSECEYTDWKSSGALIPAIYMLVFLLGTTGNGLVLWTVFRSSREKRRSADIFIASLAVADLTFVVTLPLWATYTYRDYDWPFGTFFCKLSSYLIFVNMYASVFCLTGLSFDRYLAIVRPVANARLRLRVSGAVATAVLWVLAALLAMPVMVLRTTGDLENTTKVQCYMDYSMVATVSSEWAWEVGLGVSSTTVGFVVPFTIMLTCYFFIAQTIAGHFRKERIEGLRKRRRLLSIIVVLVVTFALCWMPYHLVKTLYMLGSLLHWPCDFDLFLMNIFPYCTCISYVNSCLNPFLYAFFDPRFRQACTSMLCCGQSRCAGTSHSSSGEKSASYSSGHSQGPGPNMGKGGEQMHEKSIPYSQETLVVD
As to the kind of experiment: FACS on CHO-DHFR-hAPJ cells, antibody at 500 nM and 4 nM, blank CHO-DHFR- cells as negative control. The procedure: PBS containing EDTA was used to detach and collect 10⁵ CHO-DHFR-hAPJ cells into 1.5 mL EP tubes. The supernatant was removed after centrifugation. The negative control sample was resuspended with a FACS loading buffer (PBS, 2% FBS). For the positive control, 200 μL antibody supernatant with certain concentration was added to resuspend cells and then incubated at room temperature; the cells were then centrifuged at 1500 rpm to remove the supernatant, washed with a FACS loading buffer and centrifuged again. The cells were resuspended followed by addition (200 μL/well) of a FITC labeled goat anti-mouse fluorescent secondary antibody at 1:50 dilution and incubated at room temperature for 30 min in the dark. Supernatant was removed after centrifugation, cells were washed with FACS loading buffer, centrifuged again and resuspended with the loading buffer for analysis.

For assay [2], the target named is T1, human APJ (apelin receptor). The assay is described as follows: cell-based or functional assay.

B1: hAPJ antibody L1H1 (antibody, V domains shown)
VH: EVQLIETGGGLVQPTGSLQLSCAASGFPFNINAMNWVRQAPGKGLEWVARIRSKSNNYATYYADSVKDRFTISRDDSQSILYLQMNNLKTEDSAMYFCVRGPYLYAMDYWGQGTSVTVSS
VL: DIQMNQSPSSLSASLGDTITITCHASQNIHVWLSWYQQKPGNIPKLLIYKASNLHTGVPSRFSGSGSGTGFTLTISSLQPEDIATYYCQQGHSYPLTFGGGTKLEIKR
notes: also called mouse ascites antibody L1H1
B1: the binding result in assay [1] is “binds”.

B2: fusion protein of hAPJ antibody L5H5 and Linker2-Elabela-11 (protein, not shown: a dimerising Fc or GST; large carriers)
heavy (part 1 of 2): EIQLVESGGGLVKPGGSLRLSCAASGFTFSSYAMSWVRQAPGKGLEWVASISSGGSIYLPDSLKGRFTISRDNAKNSLYLQMNSLRAEDTAVYYCTRGRGNSSAWFAYWGQGTLVTVSS
heavy (part 2 of 2): GGGGSGGGGSCMPLHSRVPFP
light: DVLMTQSPLSLPVTLGQPASISCRSDQSLVHRTGNTHLDWYQQRPGQSPRLLIYKVSNRFSGVPDRFSGSGSGTDFTLKISRVEAEDVGVYYCFQASHIPFTFGQGTKVEIKR
Turning to B2, the EC50, reporter gene assay, activation of Elabela/APJ signaling pathway in assay [2] turned out to be 3.61 nM.

B3: fusion protein of hAPJ antibody L5H5 and Linker2-EA2 (protein, not shown: a dimerising Fc or GST; large carriers)
heavy (part 1 of 2): B2 heavy (part 1 of 2)
heavy (part 2 of 2): GGGGSGGGGSQRPRLSHKGPFP
light: B2 light
In the case of B3, in assay [2], the EC50, reporter gene assay, activation of Elabela/APJ signaling pathway turned out to be 2.16 nM.

B4: hAPJ antibody L4H4 (antibody, V domains shown)
VH: EIKLVESGGGLVKPRGSLKLSCAASGFTFSSYAMSWVRQTPEKRLEWVASISSGGSIYLPDSLKGRFTISRDNAWNILYLQMNSLKSEDTAMYYCTRGRGNSSAWFAYWGQGTLVTVSA
VL: B2 light with S7T, T14S, Q17D, P18Q, Q42L, R44K, R50K, V88L, Q105S, V109L
notes: also called mouse ascites antibody L4H4
Take B4: the binding result in assay [1] is “binds”.

B5: fusion protein of hAPJ antibody L5H5 and Linker2-EA5 (protein, not shown: a dimerising Fc or GST; large carriers)
heavy (part 1 of 2): B2 heavy (part 1 of 2)
heavy (part 2 of 2): GGGGSGGGGSQRRCMPLHSRVPAP
light: B2 light
In the case of B5, in assay [2], the EC50, reporter gene assay, activation of Elabela/APJ signaling pathway was found to be 2.55 nM.

B6: fusion protein of hAPJ antibody L5H5 and Linker2-EA3 (protein, not shown: a dimerising Fc or GST; large carriers)
heavy (part 1 of 2): B2 heavy (part 1 of 2)
heavy (part 2 of 2): GGGGSGGGGSQRRCMPLHSRVPMPF
light: B2 light
In assay [2], B6 came in with an EC50, reporter gene assay, activation of Elabela/APJ signaling pathway of 20.3 nM.

B7: fusion protein of hAPJ antibody L5H5 and Linker2-EA1 (protein, not shown: a dimerising Fc or GST; large carriers)
heavy (part 1 of 2): B2 heavy (part 1 of 2)
heavy (part 2 of 2): GGGGSGGGGSQRPRLHSRVPFP
light: B2 light
In assay [2], B7 gave an EC50, reporter gene assay, activation of Elabela/APJ signaling pathway of 4.95 nM.

B8: fusion protein of hAPJ antibody L5H5 and Linker2-EA4 (protein, not shown: a dimerising Fc or GST; large carriers)
heavy (part 1 of 2): B2 heavy (part 1 of 2)
heavy (part 2 of 2): GGGGSGGGGSQRRCLSHKGPMPF
light: B2 light
In turn, B8 yielded an EC50, reporter gene assay, activation of Elabela/APJ signaling pathway in assay [2] of 5.4 nM.
